# In US20180171024A1:
# How the values were obtained:
# [1] = molecular target: HLA-A2 on cells (tumor cell lines, normal primary cells, PBMCs) (human); assay: flow cytometry, Fib cells
# [2] = molecular target: HLA-A2 on cells (tumor cell lines, normal primary cells, PBMCs) (human); assay: flow cytometry, CCRF-SB cells, 10 µg/ml
# [3] = molecular target: HLA-A2 on cells (tumor cell lines, normal primary cells, PBMCs) (human); assay: flow cytometry, HepG2 cells
# [4] = molecular target: HLA-A2 on cells (tumor cell lines, normal primary cells, PBMCs) (human); assay: flow cytometry, A375 melanoma cells, 10 µg/ml
# [5] = molecular target: HLA-A2 on cells (tumor cell lines, normal primary cells, PBMCs) (human); assay: flow cytometry, MEWO melanoma cells
# [6] = molecular target: HLA-A2/ARHGAP on T2 cells (human); assay: flow cytometry, T2 cells loaded with ARHGAP peptide
# [7] = molecular target: HLA-A2/MAGE-A4 230-239 complex on cells (human); assay: flow cytometry, T2 cells loaded with 10^-4 M peptide
# [8] = molecular target: HLA-A2/MAGE-A9 223-231 complex on T2 cells (human); assay: as above
# [9] = molecular target: HLA-A2/PAP 112-120 complex on T2 cells (human); assay: as above
# [10] = molecular target: HLA-A2 on cells (tumor cell lines, normal primary cells, PBMCs) (human); assay: flow cytometry, Malme-3M melanoma cells
# [11] = molecular target: HLA-A2 on HLA-A2+ cells that do not express WT1 (tumor cell lines, normal primary cells); assay: flow cytometry on SKMEL-5 melanoma cells (WT1 mRNA -)
# [12] = molecular target: HLA-A2 on cells (tumor cell lines, normal primary cells, PBMCs) (human); assay: flow cytometry, astrocytes 1840, 10 µg/ml
# [13] = molecular target: HLA-A2 on HLA-A2+/WT1+ BV173 cells (WT1 mRNA positive; WT1 126-134 peptide not detected by mass spectrometry of eluted HLA peptides); assay: flow cytometry on BV173 cells (WT1 mRNA +)
# [14] = molecular target: HLA-A2/TyrD-S2 on T2 cells (human); assay: flow cytometry, T2 cells loaded with TyrD S2 [..], 10 µg/ml
# [15] = molecular target: HLA-A2/TyrD-S8 on T2 cells (human); assay: flow cytometry, T2 cells loaded with TyrD S8 [..], 10 µg/ml
# [16] = molecular target: HLA-A2/TyrD-S9 on T2 cells (human); assay: flow cytometry, T2 cells loaded with TyrD S9 [..], 10 µg/ml
# [17] = molecular target: HLA-A2 on cells (tumor cell lines, normal primary cells, PBMCs) (human); assay: flow cytometry, A375 melanoma cells, 10 µg/ml; remark: listed apart in the source
# [18] = molecular target: HLA-A2/TyrD-S14 on T2 cells (human); assay: flow cytometry, T2 cells loaded with TyrD S14 [..], 10 µg/ml
# [19] = molecular target: HLA-A2/TyrD-S22 on T2 cells (human); assay: flow cytometry, T2 cells loaded with TyrD-S22 [..], 10 µg/ml
# [20] = molecular target: HLA-A2/GP9 on T2 cells (human); assay: flow cytometry, T2 cells loaded with GP9 peptide
# [21] = molecular target: HLA-A2/P68 on T2 cells (human); assay: flow cytometry, T2 cells loaded with P68 peptide
# [22] = molecular target: HLA-A2 on cells (tumor cell lines, normal primary cells, PBMCs) (human); assay: flow cytometry, Malme-3M melanoma cells, 10 µg/ml
# [23] = molecular target: HLA-A2 on cells (tumor cell lines, normal primary cells, PBMCs) (human); assay: flow cytometry, SK-Mel-5 melanoma cells, 10 µg/ml
# [24] = molecular target: HLA-A2 on cells (tumor cell lines, normal primary cells, PBMCs) (human); assay: flow cytometry, endothelial cells HUE-1, 10 µg/ml
# [25] = molecular target: HLA-A2 on HLA-A2+ cells that do not express WT1 (tumor cell lines, normal primary cells); assay: flow cytometry on 501A melanoma cells (WT1 mRNA -)
# [26] = molecular target: HLA-A2 on cells (tumor cell lines, normal primary cells, PBMCs) (human); assay: flow cytometry, renal epithelial cells 4120, 10 µg/ml
# [27] = molecular target: HLA-A2 on cells (tumor cell lines, normal primary cells, PBMCs) (human); assay: flow cytometry, renal epithelial cells #4100-2, 10 µg/ml
# [28] = molecular target: HLA-A2/TyrD-S3 on T2 cells (human); assay: flow cytometry, T2 cells loaded with TyrD S3 [..], 10 µg/ml
# [29] = molecular target: HLA-A2/TyrD-S4 on T2 cells (human); assay: flow cytometry, T2 cells loaded with TyrD S4 [..], 10 µg/ml
# [30] = molecular target: HLA-A2/TyrD-S5 on T2 cells (human); assay: flow cytometry, T2 cells loaded with TyrD S5 [..], 10 µg/ml
# [31] = molecular target: HLA-A2/TyrD-S12 on T2 cells (human); assay: flow cytometry, T2 cells loaded with TyrD S12 [..], 10 µg/ml
# [32] = molecular target: HLA-A2/TyrD-S11 on T2 cells (human); assay: flow cytometry, T2 cells loaded with TyrD S11 [..], 10 µg/ml
# [33] = molecular target: HLA-A2/WT1 126-134 complex on T2 cells (human); assay: flow cytometry, peptide-loaded T2 cells (10^-4-10^-5 M), PE anti-mouse
# [34] = molecular target: HLA-A2/WT1-S10 on T2 cells (human); assay: as above
# [35] = molecular target: HLA-A2/WT1-S11 on T2 cells (human); assay: as above
# [36] = molecular target: HLA-A2/WT1-S3 on T2 cells (human); assay: as above
# [37] = molecular target: HLA-A2/WT1-S5 on T2 cells (human); assay: as above
# [38] = molecular target: HLA-A2/WT1-S6 on T2 cells (human); assay: as above
substance,measurement,setting,value
BB7.2 (antibody),GeoMean,[1],613
same,MFI,[2],902
same,GeoMean,[3],154
same,MFI,[4],196
same,MFI,[5],76
same,MFI,[6],2580
same,MFI,[7],492
same,MFI,[8],486
same,MFI,[9],540
same,MFI,[10],372
same,MFI,[11],170
same,MFI,[12],569
same,MFI,[13],962
same,MFI relative to background,[14],929
same,MFI relative to background,[15],539
same,MFI relative to background,[16],768
same,MFI,[17],174
same,MFI relative to background,[18],565
same,MFI relative to background,[19],464
same,MFI,[20],2470
same,MFI,[21],2660
same,MFI,[22],540
same,MFI,[23],118
same,MFI,[24],133
same,MFI,[25],229
same,MFI,[26],889
same,MFI,[27],1620
same,MFI relative to background,[28],430
same,MFI relative to background,[29],543
same,MFI relative to background,[30],546
same,MFI relative to background,[31],532
same,MFI relative to background,[32],473
same,MFI,[33],2260
same,MFI,[34],1350
same,MFI,[35],1670
same,MFI,[36],1410
same,MFI,[37],1080
same,MFI,[38],1670
